The source of these data is the Human Domainome abundance scans (Beltran et al. 2025).

The labels stand for the following.
B1: Retinoic acid receptor RXR-alpha, residues 132 to 208; numbered along this chain, P19793 (parent)
chain: KHICAICGDRSSGKHYGVYSCEGCKGFFKRTVRKDLTYTCRDNKDCLIDKRQRNRCQYCRYQKCLAMGMKREAVQEE

± gives the uncertainty stated by the source.

The series covers variants of B1. As to the kind of experiment: abundance fitness (aPCA) (normalised: wild type 0, dead -1); higher = more abundant; growth selection in yeast, the domain comes from the species named. Conditions: Homo sapiens.
KHICAICGDRSSGKHYGVYSCEGCKGFFKRTVRKDLTYTCRDNKDCLIDKRQRNRCQYCRYQKCLAMGMDREAVQEE: the abundance fitness was 0.006 ± 0.052.

As to KHICAICGDRSSGKHYGVYSCEGCKGFFKRTVRKDLTYTCRDNKDCLIDKRQRNRCQYCRYQKCLAMGMYREAVQEE, the abundance fitness came to 0.037 ± 0.061.

With KHICAICGDRSSGKHYGVYSCEGCKGFFKRTVRKDLTYTCRDNKDCLIDKRQRNRCQYCRYQKCLAMGMWREAVQEE, the abundance fitness is -0.005 ± 0.038.

In the case of KHICAICGDRSSGKHYGVYSCEGCKGFFKRTVRKDLTYTCRDNKDCLIDKRQRNRCQYCRYQKCLAMGMAREAVQEE, the abundance fitness is -0.014 ± 0.036.

As to KHICAICGDRSSGKHYGVYSCEGCKGFFKRTVRKDLTYTCRDNKDCLIDKRQRNRCQYCRYQKCLAMGMNREAVQEE, the abundance fitness came out at 0.061 ± 0.079.

Regarding KHICAICGDRSSGKHYGVYSCEGCKGFFKRTVRKDLTYTCRDNKDCLIDKRQRNRCQYCRYQKCLAMGMVREAVQEE, the abundance fitness worked out at 0.04 ± 0.034.

In the case of KHICAICGDRSSGKHYGVYSCEGCKGFFKRTVRKDLTYTCRDNKDCLIDKRQRNRCQYCRYQKCLAMGMPREAVQEE, the abundance fitness turned out to be 0.021 ± 0.05.

As for KHICAICGDRSSGKHYGVYSCEGCKGFFKRTVRKDLTYTCRDNKDCLIDKRQRNRCQYCRYQKCLAMGMFREAVQEE, the abundance fitness is 0.043 ± 0.054.

Turning to KHICAICGDRSSGKHYGVYSCEGCKGFFKRTVRKDLTYTCRDNKDCLIDKRQRNRCQYCRYQKCLAMGMHREAVQEE, the abundance fitness came out at 0.037 ± 0.072.

Turning to KHICAICGDRSSGKHYGVYSCEGCKGFFKRTVRKDLTYTCRDNKDCLIDKRQRNRCQYCRYQKCLAMGMQREAVQEE, the abundance fitness is -0.01 ± 0.042.

With KHICAICGDRSSGKHYGVYSCEGCKGFFKRTVRKDLTYTCRDNKDCLIDKRQRNRCQYCRYQKCLAMGMRREAVQEE, the abundance fitness was -0.012 ± 0.029.

In the case of KHICAICGDRSSGKHYGVYSCEGCKGFFKRTVRKDLTYTCRDNKDCLIDKRQRNRCQYCRYQKCLAMGMIREAVQEE, the abundance fitness was found to be 0.035 ± 0.064.

Consider KHICAICGDRSSGKHYGVYSCEGCKGFFKRTVRKDLTYTCRDNKDCLIDKRQRNRCQYCRYQKCLAMGMLREAVQEE, for which the abundance fitness was 0.01 ± 0.034.

KHICAICGDRSSGKHYGVYSCEGCKGFFKRTVRKDLTYTCRDNKDCLIDKRQRNRCQYCRYQKCLAMGMMREAVQEE: the abundance fitness was -0.034 ± 0.042.

As for KHICAICGDRSSGKHYGVYSCEGCKGFFKRTVRKDLTYTCRDNKDCLIDKRQRNRCQYCRYQKCLAMGMSREAVQEE, the abundance fitness was 0.002 ± 0.035.

On to KHICAICGDRSSGKHYGVYSCEGCKGFFKRTVRKDLTYTCRDNKDCLIDKRQRNRCQYCRYQKCLAMGMEREAVQEE, for which the abundance fitness is -0.074 ± 0.04.

Turning to KHICAICGDRSSGKHYGVYSCEGCKGFFKRTVRKDLTYTCRDNKDCLIDKRQRNRCQYCRYQKCLAMGMKNEAVQEE, the abundance fitness worked out at 0.015 ± 0.038.

Take KHICAICGDRSSGKHYGVYSCEGCKGFFKRTVRKDLTYTCRDNKDCLIDKRQRNRCQYCRYQKCLAMGMKTEAVQEE: the abundance fitness amounted to 0.019 ± 0.029.

Turning to KHICAICGDRSSGKHYGVYSCEGCKGFFKRTVRKDLTYTCRDNKDCLIDKRQRNRCQYCRYQKCLAMGMKSEAVQEE, the abundance fitness amounted to 0.003 ± 0.024.

Consider KHICAICGDRSSGKHYGVYSCEGCKGFFKRTVRKDLTYTCRDNKDCLIDKRQRNRCQYCRYQKCLAMGMKFEAVQEE, for which the abundance fitness came out at 0.01 ± 0.032.

As to KHICAICGDRSSGKHYGVYSCEGCKGFFKRTVRKDLTYTCRDNKDCLIDKRQRNRCQYCRYQKCLAMGMKMEAVQEE, the abundance fitness is -0.01 ± 0.032.

Consider KHICAICGDRSSGKHYGVYSCEGCKGFFKRTVRKDLTYTCRDNKDCLIDKRQRNRCQYCRYQKCLAMGMKCEAVQEE, for which the abundance fitness was -0.001 ± 0.04.

In the case of KHICAICGDRSSGKHYGVYSCEGCKGFFKRTVRKDLTYTCRDNKDCLIDKRQRNRCQYCRYQKCLAMGMKIEAVQEE, the abundance fitness was 0.028 ± 0.033.

Regarding KHICAICGDRSSGKHYGVYSCEGCKGFFKRTVRKDLTYTCRDNKDCLIDKRQRNRCQYCRYQKCLAMGMKPEAVQEE, the abundance fitness was 0.005 ± 0.031.

As to KHICAICGDRSSGKHYGVYSCEGCKGFFKRTVRKDLTYTCRDNKDCLIDKRQRNRCQYCRYQKCLAMGMKEEAVQEE, the abundance fitness came to 0.006 ± 0.035.

With KHICAICGDRSSGKHYGVYSCEGCKGFFKRTVRKDLTYTCRDNKDCLIDKRQRNRCQYCRYQKCLAMGMKKEAVQEE, the abundance fitness is 0.043 ± 0.034.

On to KHICAICGDRSSGKHYGVYSCEGCKGFFKRTVRKDLTYTCRDNKDCLIDKRQRNRCQYCRYQKCLAMGMKAEAVQEE, for which the abundance fitness is 0.033 ± 0.029.

Turning to KHICAICGDRSSGKHYGVYSCEGCKGFFKRTVRKDLTYTCRDNKDCLIDKRQRNRCQYCRYQKCLAMGMKHEAVQEE, the abundance fitness was -0.007 ± 0.033.

Consider KHICAICGDRSSGKHYGVYSCEGCKGFFKRTVRKDLTYTCRDNKDCLIDKRQRNRCQYCRYQKCLAMGMKLEAVQEE, for which the abundance fitness came to 0.033 ± 0.024.

As to KHICAICGDRSSGKHYGVYSCEGCKGFFKRTVRKDLTYTCRDNKDCLIDKRQRNRCQYCRYQKCLAMGMKQEAVQEE, the abundance fitness was 0.001 ± 0.034.

Regarding KHICAICGDRSSGKHYGVYSCEGCKGFFKRTVRKDLTYTCRDNKDCLIDKRQRNRCQYCRYQKCLAMGMKVEAVQEE, the abundance fitness was found to be 0.021 ± 0.028.

Regarding KHICAICGDRSSGKHYGVYSCEGCKGFFKRTVRKDLTYTCRDNKDCLIDKRQRNRCQYCRYQKCLAMGMKGEAVQEE, the abundance fitness was -0.004 ± 0.027.

KHICAICGDRSSGKHYGVYSCEGCKGFFKRTVRKDLTYTCRDNKDCLIDKRQRNRCQYCRYQKCLAMGMKDEAVQEE: the abundance fitness was 0.065 ± 0.036.

For the variant KHICAICGDRSSGKHYGVYSCEGCKGFFKRTVRKDLTYTCRDNKDCLIDKRQRNRCQYCRYQKCLAVGMKREAVQEE, the abundance fitness was -0.009 ± 0.026.

With KHICAICGDRSSGKHYGVYSCEGCKGFFKRTVRKDLTYTCRDNKDCLIDKRQRNRCQYCRYQKCLAWGMKREAVQEE, the abundance fitness is -0.055 ± 0.037.
